# Assay results reported in US20110038856A1, “METHODS OF TREATING NEOPLASTIC, AUTOIMMUNE AND INFLAMMATORY DISEASES” (Seattle Genetics, Inc., priority 2006, published 2011).
# What was measured:
# [1] = test system: HEL 92.1.7 cells; experiment: Complement-dependent cytotoxicity (CDC) on MDR+ CD33-positive AML cell line; format: cell-based, human; conditions: HEL 92.1.7 cells; FIG. 4
# Description: The purpose of this study was to determine whether the cytotoxic effects of an anti-CD33 antibody (HuM195) on AML cells could be enhanced by combination treatment with chemotherapeutic drugs. An MDR^+, CD33-positive AML cell line (HEL 92.1.7) was either untreated or preincubated with the indicated concentrations of thalidomide or 5-azacytidine for two hours prior to exposure to the anti-CD33 Ab. Cytotoxic activity was measured using a complement-dependent cytotoxicity (CDC) activity.
# [2] = test system: human CD14+ monocytes; experiment: Cytokine/chemokine production by primary human CD14+ monocytes; format: cell-based
# [3] = test system: primary human macrophages; experiment: Macrophage migration in response to chemoattractants (CytoSelect Cell Migration Assay); format: cell-based
# Description: (§1) The migration of macrophages in response to challenge with plating media containing 10% human serum, 20% conditioned tumor cell media, or 50 ng/ml TGF-β, VEGF, TNF-α, or IFN-γ was evaluated using the CytoSelect Cell Migration Assay (Cell Biolabs, San Diego, Calif.). […] The study was stopped 18 hours later and migration was evaluated after dissociation of the cells from the membrane followed by detection with Cyquant GR dye.
# as §1, with “serum or” for “serum,”, “media” for “media, or 50 ng/ml TGF-β, VEGF, TNF-α, or IFN-γ”, “studies were” for “study was”, “h” for “hours”
# [4] = test system: KG-1 AML cell line; experiment: Cytokine production by KG-1 AML cell line; format: cell-based; conditions: 2.5 μg/ml pre-treatment, then 1 ng/ml TNF-alpha; media harvested 18 h later; versus control antibody
# Description: Media was harvested 18 h later for cytokine analyses.
# [5] = test system: primary human macrophages
# Description: (§2) Macrophages were harvested, counted, and cultured in 96-well plates at 35,000 cells per well. G-CSF-mobilized CD14^+ monocytes (Cambrex) were cultured in 96-well plates at 100,000 cells per well (adherent cells) in sterile polypropylene dishes (non-adherent cells).
# [6] = test system: primary human CD14+ monocytes
# Description: as §2
# [7] = test system: patients with relapsed and refractory acute myeloid leukemia (AML); conditions: low dose with infrequent administration; cited from earlier work
# [8] = test system: patients with advanced myeloid malignancies (AML, MDS, CMML); experiment: Phase 1 single-arm dose escalation trial in patients with advanced myeloid malignancies
# Description: Entry criteria included CD33 expression on >50% of the marrow blasts to ensure that adequate target antigen was present. […] Clinical response was assessed by bone marrow morphology and hematologic improvement. […] Among AML patients, 6 had antecedent hematologic disorder. Dosing cohorts included 1.5 (6), 2.5 (4), 4 (4), and 8 mg/kg (17).
# [9] = biological target: T1, CD33 (Homo sapiens, UniProt P20138); experiment: CD33 tyrosine phosphorylation in CD33-positive AML lines (CD33 immunoprecipitation, anti-phosphotyrosine Western blot); format: cell-based; parameters: endogenous in cells; host or cells: HL-60 (ATCC); primary human CD14+ monocytes (Cambrex); macrophages derived from human PBMCs
# T1 sequence (P20138 18-364): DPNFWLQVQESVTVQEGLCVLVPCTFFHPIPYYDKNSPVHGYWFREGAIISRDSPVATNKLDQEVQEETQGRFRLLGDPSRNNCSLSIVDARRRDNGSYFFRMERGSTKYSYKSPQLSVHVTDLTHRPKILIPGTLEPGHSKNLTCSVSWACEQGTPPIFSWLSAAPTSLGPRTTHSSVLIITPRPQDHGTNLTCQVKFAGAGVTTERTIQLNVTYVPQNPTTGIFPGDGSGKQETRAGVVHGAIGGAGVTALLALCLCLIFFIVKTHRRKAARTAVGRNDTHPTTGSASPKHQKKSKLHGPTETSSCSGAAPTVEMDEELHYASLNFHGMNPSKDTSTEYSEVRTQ
# Description: CD33-positive cell lines were treated with anti-CD33 antibodies (lintuzumab and certain commercially available antibodies). Cell extracts were prepared and CD33 was immunoprecipitated using an anti-CD33 antibody (MY9 clone; Beckman Coulter, Calif.). Western blotting was performed with an anti-phosphotyrosine antibody (4G10; Upstate Biotechnologies, Inc., Lake Placid, N.Y.). […] Two forms of CD33 were detected (due to either splicing of CD33 mRNA or post-translational modification of CD33).
# [10] = biological target: T1, CD33; experiment: Recruitment of SHP phosphatases / Syk to CD33 in HL-60 cells (immunoprecipitation, Western blot); format: cell-based; parameters: endogenous in cells; host or cells: HL-60 (ATCC); primary human CD14+ monocytes (Cambrex); macrophages derived from human PBMCs
# Description: To determine whether the humanized M195 antibody also recruits SHP phosphatases, HL-60 cells were treated with soluble or cross-linked anti-CD33 antibodies. Cell extracts were prepared and CD33 was immunoprecipitated with an anti-CD33 antibody (MY9 clone). Western blotting was performed with an anti-SHP-1 antibody (sc-287; Santa Cruz Biotechnology, Inc., Santa Cruz, Calif.).
# [11] = biological target: T1, CD33; experiment: SGN-33 signaling in HL-60 cells, primary human monocytes and macrophages (CD33 immunoprecipitation, Western blot); format: cell-based; parameters: endogenous in cells; host or cells: HL-60 (ATCC); primary human CD14+ monocytes (Cambrex); macrophages derived from human PBMCs
# Description: Deglycosylation was confirmed by CE-SDS. […] Cell lysates were prepared and CD33 immunoprecipitated using an anti-CD33 rabbit polyclonal antibody (Santa Cruz Biotechnology, Santa Cruz, Calif.) prior to SDS PAGE gel electrophoresis. Western blot analyses of these samples were performed using the 4G10 phosphotyrosine antibody (Upstate Biotechnology, Temucula, Calif.), anti-CD33 antibody (NovoCastra, Norwell, Mass.), and anti-SHP-1 antibody (Calbiochem, San Diego, Calif.). Control lysate for SHP-1 was prepared from a B cell lymphoma cell line.
# [12] = HL-60 AML cells and primary human monocytes or macrophages, soluble SGN-33, 30 minutes, FIG. 15
substance,measurement,setting,value
"SGN-33: anti-CD33 antibody, a humanized version of mouse monoclonal antibody M195",lysis of AML cells (CDC activity),[1],increased lysis of AML cell lines in a dose-dependent manner
same,"production of IL-6, TNF-α, MCP-1, IL-8, and RANTES","[2]; CD14+ primary human monocytes activated with IFN-γ, previous studies (Example 3)",significantly reduced
same,level of RANTES,"[2]; adherent CD14+ monocytes, IFN-γ stimulated, FIG. 10",reduced
same,level of RANTES,"[2]; adherent CD14+ monocytes, RPMI-8228 conditioned media stimulated, FIG. 11",reduced
same,level of TNF-α,"[2]; adherent CD14+ monocytes, basal level, FIG. 11",reduced the basal level
same,"levels of IL-6, MCP-1, TNF-α, and IL-8","[2]; adherent CD14+ monocytes, basal levels and IFN-γ stimulated levels, 48 hours, FIG. 10",reduced
same,"levels of IL-6, MCP-1, and IL-8","[2]; adherent CD14+ monocytes, basal levels and RPMI-8228 conditioned media stimulated levels, FIG. 11",reduced
same,"levels of IL-6, IL-8, TNF-α and MCP-1","[2]; non-adherent CD14+ monocytes upon exposure to SGN-33, FIG. 12",small increases
same,"production of cytokines, chemokines and growth factors","[2]; non-adherent CD14+ monocytes, IFN-γ, FIG. 12",not inhibited
same,"levels of IL-6, MCP-1, IL8 and RANTES","[2]; non-adherent CD14+ monocytes, stimulated by RPMI-8226 conditioned media, FIG. 12",reduced
same,"IFN-γ-stimulated production of IL-10, IL-10, IL-12, and MIP-1α","[2]; primary human monocytes treated 1 hr prior to IFN-γ, supernatants 18 h later, p<0.001, FIG. 19",significantly reduced
same,levels of TNF-α,"[2]; primary human monocytes, various doses of SGN-33, 1 hr prior to IFN-γ, 18 h, p<0.05, FIG. 20",significantly reduced levels of TNF-α in a dose-dependent manner
same,macrophage migration,"[3]; 10% human serum or 20% conditioned media from RPMI 8226 cells, p<0.05, FIG. 21",significantly reduced
same,blocking of macrophage migration,"[3]; SGN-33 added to neuraminidase-treated macrophages, versus neuraminidase alone, FIG. 14C",greater blocking effect
same,movement of the macrophages toward chemoattractants,"[3]; cells pre-treated, 10% serum or conditioned medium, FIG. 14B",significantly reduced
same,migration of macrophages,"[3]; in response to conditioned tumor cell media, TGF-β, VEGF, TNF-α, and IFN-γ",significantly opposed the migration
same,"production of IL-8, IP-10, M11b, RANTES, and MCP-1",[4],reduced the production
same,cell viability,[5],without interfering with cell viability
same,cell viability,[6],not due to an adverse effect
same,blast cells,[7],induced significant reductions in blast cells
same,tolerability,"[8]; 1.5 mg/kg/wk, N=6, previously untreated patients, average age 76 years",well tolerated
same,patients achieving CR,[8]; among 18 patients with AML,4
same,patients achieving CR with incomplete platelet recovery,[8]; among 18 patients with AML,1
same,antitumor activity,[8]; an elderly patient with previously untreated AML,antitumor activity was observed
same,maximal tolerated dose,"[8]; at 1.5 mg/kg/wk, N=6",without any evidence that a maximal tolerated dose has been reached
same,exposure (AUC),[8]; doses 1.5 to 8 mg/kg,increased relative to dose
same,tolerability,[8]; doses up to 8 mg/kg/wk,well tolerated
same,anti-SGN-33 immune responses,[8]; first 15 patients tested,No anti-SGN-33 immune responses were detected
same,Grade 4 adverse events considered related to antibody,"[8]; human, in vivo",none
same,infusion reactions during subsequent doses,"[8]; human, in vivo",uncommon
same,accumulation,[8]; repeat dosing,accumulation was documented with repeat dosing
same,Grade 3 adverse events considered related to antibody,"[8]; tumor lysis syndrome at 4 mg/kg, febrile neutropenia at 8 mg/kg",2
same,chills associated with the first infusion (most common drug-related adverse event),[8]; weekly iv doses of 1.5 to 8 mg/kg,11/31
same,dose limiting toxicity,"[8]; weekly iv doses of 1.5 to 8 mg/kg, 31 patients",has not been observed
same,"CD33 tyrosine phosphorylation, soluble versus cross-linked antibody","[9]; HL-60 and U937 cells, FIG. 2",more effective than cross-linked antibody
same,CD33 tyrosine phosphorylation,"[9]; HL-60 and U937 cells, soluble or cross-linked antibody, compared with control human IgG1, FIG. 2",stimulated CD33 tyrosine phosphorylation
same,CD33 tyrosine phosphorylation,"[9]; HL-60 cells, both soluble and cross-linked antibody, FIG. 1",stimulated CD33 tyrosine phosphorylation
same,recruitment of SHP-2,[10]; data not shown,did not recruit
same,recruitment of Syk,[10]; data not shown,did not recruit
same,recruitment of SHP-1 to CD33,"[10]; soluble or cross-linked antibody, FIG. 3",recruited SHP-1 to CD33
same,phosphorylation of CD33,[11]; [12],resulted in phosphorylation of CD33
same,recruitment of SHP-1,[11]; [12],recruitment of SHP-1
same,recruitment of SHP-1 to the CD33 complex,"[11]; HL-60 and monocytes, 30 minutes, FIG. 16",resulted in recruitment of SHP-1
same,time to phosphorylation of CD33 and recruitment of SHP-1,"[11]; HL-60 cells, 3 μg/ml soluble SGN-33, FIG. 17",≤ 5 min
same,strength of the phosphorylation response (signal on western blot),"[11]; primary monocytes compared to HL-60 or primary macrophages, opposite for SHP-1 signal, FIG. 15",appeared to be stronger in primary monocytes
